Experimental data reported in patent US20030096225A1.

Molecular target: purified recombinant Ep-CAM produced in insect cells (UniProt P16422)
Assay: SPR (BIAcore), Ep-CAM coupled to CM5 chip, control antibody

Chain of purified recombinant Ep-CAM produced in insect cells (P16422 24-265 limits assumed): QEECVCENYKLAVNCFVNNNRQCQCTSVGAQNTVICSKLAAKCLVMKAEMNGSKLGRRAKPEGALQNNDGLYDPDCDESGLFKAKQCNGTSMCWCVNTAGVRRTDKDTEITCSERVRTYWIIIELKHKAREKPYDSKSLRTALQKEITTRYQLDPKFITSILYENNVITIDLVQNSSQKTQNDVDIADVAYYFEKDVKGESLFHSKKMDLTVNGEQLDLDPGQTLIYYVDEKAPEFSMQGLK

Kd: 500 pM
Substance: murine anti-Ep-CAM antibody 323/A3
